Data reported in paper PMC7857404.

Target: SARS-CoV-2-3Q-FL spike (without 2P) (SARS-CoV-2) (UniProt P0DTC2)
Experiment: cryo-EM structure

SARS-CoV-2-3Q-FL spike (without 2P) (from UniProt P0DTC2 14-1273) (natural protein)
stoichiometry N: 3
